Laboratory results taken from US20030134774A1, “Methods for inhibiting cardiac disorders” (priority 2001, published 2003).

Columns and labels:
Format in all cases: cell-based, rat
[1] = tested on: JNK; assay: Phospho-JNK Western blot in cardiomyocytes
Experimental: (§1) rPMT promotes the activation of ERK1/2, JNK and p38-MAPK cascades. Incubations were for 24 hr in the presence of the indicated concentrations of rPMT. PMA (100 nM, 5 min) and sorbitol ([…], 5 min) were included as positive controls. Cell lysates were subjected to SDS-PAGE followed by Western blotting as described in Methods below. Phosphorylated forms of ERK1/2 (A), p38 MAP kinase (B) or JNK (C) were detected by specific anti-phospho-ERK1/2, -p38 MAP kinase or -JNK antibodies, respectively. Blots were stripped and subjected to immunoblot analysis with total ERK1/2 or p38 MAP kinase to normalize for minor variations in protein loading (Panels A and B). Top: representative autoradiograms (with each lane from a single gel exposed for the same duration). Bottom: quantification of each series of experiments (n=3).
(§2) Specific immunoreactivity for individual PKC isoforms was quantified according to methods described previously. For assays of MAPKs and AKT, cells were exposed to test agents as indicated in individual experimental protocols, washed three times with ice-cold calcium/magnesium-free Dulbecco's PBS (pH 7.1), scraped into ice-cold extraction buffer [20 mM β-glycerophosphate pH 7.5, 20 mM sodium fluoride, 2 mM EDTA, 0.2 mM sodium vanadate, 10 μg/ml aprotinin, 25 μg/ml leupeptin, 50 μg/ml PMSF, and 0.3% (v/v) β-mercaptoethanol], lysed by sonication, and centrifuged at 10,000 g for 10 min at 4° C. The supernatant was diluted in SDS-PAGE sample buffer, boiled for 5 min, and stored at −70° C. Western blot analysis was performed with antibodies that are selective for the phosphorylated (activated) forms of ERK1/2, p38-MAPK, JNK, AKT, and pan-PKC according to manufacturer's instructions. For each panel in each Figure, the results are from a single gel exposed for a uniform duration. Bands were detected by enhanced chemiluminescence and blots were quantified by laser scanning densitometry.

[2] = tested on: cardiomyocytes; assay: TUNEL assay of apoptosis in cardiomyocyte cultures
Experimental: rPMT increases H2O2-induced apoptosis in cardiomyocyte cultures. Cells were treated without or with rPMT (400 ng/ml) for 24 hr followed by H202 (500 μM) for 24 hr. The percentage of cells undergoing apoptosis was measured by TUNEL assay as described in Methods below. Data are from a single experiment and are representative of results obtained on 3 separate culture preparations.
TUNEL staining was performed for detection of apoptotic cells according to manufacturer's instructions (Boehringer). Approximately 500 cardiomyocytes were imaged by fluorescence microscopy and the number of cells that scored TUNEL-positive is presented as a percentage of total.

[3] = tested on: PKCδ and PKCε; assay: Immunoblot of nPKC isoform abundance in cardiomyocytes; conditions: 24 hr stimulation
Experimental: (§3) rPMT selectively activates nPKC isoforms. Cardiomyocyte cultures were incubated in culture medium without or with NE (10 μM), rPMT (400 ng/ml) or PMA (100 nM) for 24 hr (Panels A and C) or 5 min (Panel B). Soluble extracts were prepared and separated by SDS-PAGE followed by immunodetection of total PKC isoform abundance with antibodies that are specific for the individual PKC isoforms (Panel A), or phosphorylated forms of PKC (largely PKCε) with a pan-phospho-PKC antibody (Panels B and C), as described in Methods below. GF109203 was included at 5 μM 30 min prior to stimulation as indicated.
(§4) Cells were maintained in culture in the presence of 10% FCS for 96 hr and then switched to serum-free medium for 24 hr prior to the addition of agonists as indicated. For PKC, extracts were prepared and subjected to SDS-PAGE to resolve individual isoforms according to methods described previously (14).
(§5) Specific immunoreactivity for individual PKC isoforms was quantified according to methods described previously. […] Bands were detected by enhanced chemiluminescence and blots were quantified by laser scanning densitometry.

[4] = tested on: cardiomyocytes; assay: Protein synthesis ([3H]phenylalanine incorporation) in cardiomyocytes; conditions: rPMT 400 ng/ml or NE 10 μM, 48 hr, serum-free
Experimental: (§6) rPMT mimics the effect of norepinephrine to promote cardiomyocyte hypertrophy. Cardiomyocytes were cultured in serum-free medium without or with rPMT (400 ng/ml) or norepinephrine (NE, 10 μM) for 48 hr. Cardiomyocytes were fixed, permeabilized, and stained with monoclonal anti-α-actinin sarcomeric (Panel A, magnification×100) or subjected to Northern blot analysis for measurements of steady-state ANF mRNA expression (Panel B). Effects of rPMT (black bars) and NE (gray bars) vs. vehicle (white bars) on sarcomeric organization (Panel C), cell size (Panel D), and protein synthesis (Panel E) are illustrated (n=3 for each).
As a second index of cardiomyocyte growth, relative rates of protein synthesis were measured as radiolabeled phenylalanine incorporation into cell protein. Cells were stimulated in serum-free medium with agonists (or vehicle as control) for 48 hr at 37° C. The medium was replaced with serum-free medium containing [^3H]phenylalanine (0.1 μCi/ml) and non-radioactive phenylalanine (0.3 mM, to minimize variations in the specific activity of the precursor pool responsible for protein synthesis) during the final 24 hr of stimulation. Cells were rinsed with PBS and incubated in 10% trichloroacetic acid for 30 min on ice. […] Aliquots of the SDS-soluble protein were counted in 5 ml of scintillant.

[5] = tested on: cardiomyocytes; assay: Cardiomyocyte growth: sarcomeric organization and cell size; conditions: rPMT 400 ng/ml or NE 10 μM, 48 hr, serum-free
Experimental: as §6
Cardiomyocyte growth was assessed by measuring cell surface area by digitized image analysis. For each experimental point, 7-10 frames/dish were recorded at 40× magnification with a video camera attached to a Nikon microscope which was calibrated with a micrometer.
Cardiomyocytes were grown on slides precoated with fibronectin. After treatment, cells were fixed with cold methanol and permeabilized with 0.1% Triton X-100 and 0.2% BSA. Cells were incubated with α-actinin monoclonal antibody overnight at 4° C. followed by anti-mouse IgG-Cy3-labeled antibody for 30 min at room temperature. Fluorescence microscopy images were obtained at 100× magnification.

[6] = tested on: PKCα and PKCλ; assay: Immunoblot of PKCα/PKCλ abundance and distribution in cardiomyocytes; conditions: 24 hr stimulation
Experimental: as §3, §4, §5

[7] = tested on: p38-MAPK; assay: Phospho-p38 MAP kinase Western blot in cardiomyocytes
Experimental: as §1, §2

[8] = 24 hr, indicated concentrations
[9] = increased progressively for 24 hr
[10] = rPMT 24 hr, sorbitol 5 min positive control

B1: rPMT: recombinant Pasteurella multocida toxin, a Gαq agonist used as pharmacological probe (protein, UniProt P17452 1-1285, looked up)
Dermonecrotic toxin: MKTKHFFNSDFTVKGKSADEIFRRLCTDHPDKQLNNVKWKEVFINRFGQMMLDTPNPRKIVEKIINEGLEKQGLKNIDPETTYFNIFSSSDSSDGNVFHYNSLSESYRVTDACLMNIFVERYFDDWDLLNSLASNGIYSVGKEGAYYPDHDYGPEYNPVWGPNEQIYHSRVIADILYARSVWDEFKKYFMEYWQKYAQLYTEMLSDTFLAMAIQQYTRQTLTDEGFLMVCNTYYGNKEEVQITLLDIYGYPSTDIICIEQKGLPTPKVILYIPGGTQPFVEFLNTDDLKQWIAWHLKDNKHMVAFRKHFSLKQRQEGETFTGIDKALQYIAEESPEWPANKYILYNPTHLETENLFNIMMKRTEQRMLEDSDVQIRSNSEATRDYALSLLETFISQLSAIDMLVPAVGIPINFALSATALGLSSDIVVNGDSYEKRKYGIGSLVQSALFTGINLIPVISETAEILSSFSRTEEDIPAFFTEEQALAQRFEIVEEELHSISPDDPPREITDENLHKIRLVRLNNENQPLVVLRRLGGNKFIRIEPITFQEIKGSLVSEVINPVTNKTYYVSNAKLLGGSPYSPFRIGLEGVWTPEVLKARASVIGKPIGESYKRILAKLQRIHNSNILDERQGLMHELMELIDLYEESQPSSERLNAFRELRTQLEKALYLPEMEALKKQILQIPNKGSGAARFLLRTAMNEMAGKTSESTADLIRFALQDTVISAPFRGYAGAIPEAIDFPVKYVIEDISVFDKIQTNYWELPAYESWNEGSNSALLPGLLRESQSKGMLSKCRIIENSLYIGHSYEEMFYSISPYSNQVGGPYELYPFTFFSMLQEVQGDLGFEQAFATRNFFNTLVSDRLSLMENTMLLTESFDYTPWDAIYGDINYDEQFAAMSINERIEKCMNTYRGVAFQNSSKSIDFFLNNLTTFIDNGLTEIAISDLPYDIVQQEISQFLQGSNEWKTLDAMLFNLDKGDINGAFRKLLQSAKDNNIKFRAIGHSDNSVPPFNNPYKSLYYKGNIIAEAIEKLDREGQKFVVFADSSLLNSTPGTGRPMPGLVQYLKIPATVVDSDGAWQFLPDVASSRVPIEVTELENWQVLTPPQGKILGLKQFKLTAGFPTEQSRLPLLENSVSEDLREELMQKIDAIKNDVKMNSLVCMEAGSCDSVSPKVAARLKDMGLEAGMGASITWWRREGGMEFSHQMHTTASFKFAGKEFAVDASHLQFVHDQLDTTILILPVDDWALEIAQRNRAINPFVEYVSKTGNMLALFMPPLFTKPRLTRAL
expression of total JNK protein [1]: does not significantly alter
signaling through the JNK cascade (phosphorylation of terminal kinase) [1, 8]: dose-dependent increases
time at which JNK activation is detectable [1, 9]: 1 h
magnitude of JNK activation [1, 10]: more modest
effect on H2O2-induced apoptosis ([2]; rPMT 400 ng/ml 24 hr followed by H2O2 500 μM 24 hr): augmented
number of TUNEL-positive cells ([2]; serum-free conditions for 48 hr): small increase
abundance of PKC-δ and PKC-ε in the particulate fraction [3]: remains relatively preserved
abundance of PKCδ and PKCε in the soluble fraction [3]: significantly reduce
[3H]phenylalanine incorporation (protein synthesis) [4]: enhance [^3H]phenylalanine incorporation
cell size (cellular enlargement) [5]: induce marked cellular enlargement
myofibrillar (sarcomeric) organization [5]: promote myofibrillar organization
abundance and subcellular distribution of PKCα and PKCλ [6]: is not altered
expression of total p38-MAPK protein [7]: does not significantly alter
signaling through the p38-MAPK cascade (phosphorylation of terminal kinase) [7, 8]: dose-dependent increases
time at which p38-MAPK activation is detectable [7, 9]: 1 h
magnitude of p38-MAPK activation [7, 10]: more modest
